Results on 30 sequences are retold here after the nanobody polyreactivity screen of Harvey et al. (2022).

The series can be described thus: yeast display, Sf9 membrane polyspecificity reagent, FACS + sequencing; frameworks hold sequencing errors. The method in brief:
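Galactose-induced (36–48 hours) yeast carrying a synthetic nanobody display library were exposed to 10% biotinylated, detergent-solubilized Sf9 membrane reagent at 4 °C for 1 hour. FACS followed streptavidin microbead enrichment, using low and high (top ~1%) gates for expression (anti-HA) and reagent binding (streptavidin). Colony PCR, MiSeq 2 × 250 sequencing and CDR-length filtering followed. Labels for polyreactivity reflect the gate of origin.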
For the sequence “QVQLVESGGGLVQAGGSLRLSCAASGSIFLFYAMGWYRQAPGKERELVAAISYSGGRTYYADSVKGRFTISRDNAKNTVYLQMNSLNPEDTAVYYCAAVGYSSYPYRRFDYWGQGTQVTVSS”, the “polyreactivity (PSR sort gate)” value is reported as “high polyreactivity”. For the sequence “QVQLVESGGGLVQAGGSLRLSCAASGSIFLHNAMGWYRQAPGTERELVAGITSSGTSTYYADSVKGRFTISRDIAKNTVYLQMNSLKPEDTAVYYCAAYRYGSRGGYWGQGTHVTVSS”, the “polyreactivity (PSR sort gate)” value is listed as “high polyreactivity”. As to “QVQLVESGGGLVQAGGSLRLSCAASGSIFLIYAMGWYRQAPGKERELVAAINYSGVRTYYADSEKGRFTISRDYAKNTLYLPMNSLKPEETAVYYCAPDATSYSYRYNYWGQGTQVTVSS”, the “polyreactivity (PSR sort gate)” value is “high polyreactivity”. On to “QVQLVESGGGLVQAGGSLRLSCAASGSIFLNNAMGWYRQAPGKERELVAAITRNVGSTYYADSVKGRFTISRDNAKNTVYLQMNSLKPEDTAVYYCAADRRRRYDYWGQGTQVTVSS”, for which the “polyreactivity (PSR sort gate)” value is “low polyreactivity”. For “QVQLVESGGGLVQAGGSLRLSCAASGSIFLPNAMGWYRQAPGKERELVAVITGGGSTKYADSVKGRFTISRDNAKNTVYLQMNSLKPEDTAVYYCNAQSPVDPSCDYWGRGTQVTVSS”, the “polyreactivity (PSR sort gate)” value is “low polyreactivity”.

Turning to “QVQLVESGGGLVQAGGSLRLSCAASGSIFLQYAMGWYRQAPGKERELVAAITTSGRTYYADSVKGRFTISRDNAKYTVYLQMNSLKPEDTAVYYCAATWRYGYYAYYYWGQGTQVTVSS”, the “polyreactivity (PSR sort gate)” value is “high polyreactivity”. Take “QVQLVESGGGLVQAGGSLRLSCAASGSIFLRNAMGWYRQAPGKERALVAAISWGGRTYYADSVKGRFTISRDNAKNTVYLQMNSLKPEDTAVYYCAADGTWVRSPHFYYWGQGTQVTVSS”: the “polyreactivity (PSR sort gate)” value is on record as “low polyreactivity”. Consider “QVQLVESGGGLVQAGGSLRLSCAASGSIFLRNAMGWYRQAPGKERELVAAISWGGRTYYADSVKGRFTISRDNAKNTVYLQLNSLKPEDRAVYYCSADGTWVRSPHFYYWGQGTQVTVSS”, for which the “polyreactivity (PSR sort gate)” value was “low polyreactivity”. The result for “QVQLVESGGGLVQAGGSLRLSCAASGSIFLRYAMGWYRQAPGKERELVATISKSGGSTYYADSVKGRFTISRDNAKNTVYLQMNSLKPEDTAVYYCAAGYVYFQTYYYWGQGTQVTVSS” reads “high polyreactivity”; that for “QVQLVESGGGLVQAGGSLRLSCAASGSIFLRYAMGWYRQAPGKERELVATITSGGRTKYADSVKGRFTISRDNAKNTVYLQMNSLKPEDTAVYYCNAKTQSLKRSTFNYWGQGTQVTVSS”, “low polyreactivity”. “QVQLVESGGGLVQAGGSLRLSCAASGSIFLRYGMGWYRQAPGKERELVAAISRGGGSTYYADSVKGRFTISRDNAKNTVYLQMNSLKPEDTAVYYCNKASYRYSSDYDYWGQGTQVTVSS”: the “polyreactivity (PSR sort gate)” value is “high polyreactivity”. Take “QVQLVESGGGLVQAGGSLRLSCAASGSIFLSNAMGWYRQAPGKERELVASISGSGSTNYADSVKGRFTISRDNAKNTVYLQMNSLKPEDTAVYYCAAYQRYDSVTGARYEYDYWGQGTQVTVSS”: the “polyreactivity (PSR sort gate)” value is “low polyreactivity”. Turning to “QVQLVESGGGLVQAGGSLRLSCAASGSIFLSYAMGWYRQAPGKERELVAAISRRGVRTYYADSVKGRFTISRDNAKNTVYLQMNSLKPEDTAVYYCAKDAYFPPWTYGSIFGLYDYWGQGTQVTVSS”, the “polyreactivity (PSR sort gate)” value is “low polyreactivity”.

On to “QVQLVESGGGLVQAGGSLRLSCAASGSIFLVYAMGWYRQAPGKERELVAAISSDGDDTYYADSVKGRFTISRDNAKNTVYLQMNSLKPEDTAVYYCAAESYTYYADYGYGYWGQGTQVTVSS”, for which the “polyreactivity (PSR sort gate)” value is given as “high polyreactivity”. The result for “QVQLVESGGGLVQAGGSLRLSCAASGSIFLVYAMGWYRQAPGKERELVAGITSDDSTNYADSVKGRFTISRDNAKNTVYLQINRLKPEDTAVYYCAKDSLGLYIVDLGYWGQGTQVTVSS” reads “low polyreactivity”; that for “QVQLVESGGGLVQAGGSLRLSCAASGSIFLVYSMGWYRQAPGKERELVAAISRSGRTYADSVKGRFTISRDNAKNTVYLQMNSLKPEDTAVYYCNKLAVRPGYGSTYDYWGQGTQVTVSS”, “high polyreactivity”; that for “QVQLVESGGGLVQAGGSLRLSCAASGSIFLWNAMGWYRQAPGKERELVAAITWRGGSTYYADSVKGRFTISRDNAKNTVYLQMNSLKPEDTAVYYCAADSYDWMDYWGQGTQVTVSS”, “low polyreactivity”. For “QVQLVESGGGLVQAGGSLRLSCAASGSIFLWYAMGWSRQAPGKERELVAALTYSGGTTYYADSVKGRFTISRDNAKNTVYLQLNSLKPEDTAVYYCAKRTAVWTSGGYRKRDYWGQGTQVTVSS”, the “polyreactivity (PSR sort gate)” value is recorded as “high polyreactivity”. On to “QVQLVESGGGLVQAGGSLRLSCAASGSIFLWYDMGWYRQAPGKEREFVASITRSGGSTYYADSVKGRFTISRDNAKNTVYLQMNSLKPEDTAVYYCAAGRRSSWRYYLWYDYWGQGTQVTVSS”, for which the “polyreactivity (PSR sort gate)” value was “low polyreactivity”. Take “QVQLVESGGGLVQAGGSLRLSCAASGSIFLYNAMGWYRQAPGKERELVAAISKSGGSTYYADSVKGRFTISRDNAKNTVYLQMNSLKPEDTAVYYCAAGYGRRIRYGSEYDYWGQGTLVTVSS”: the “polyreactivity (PSR sort gate)” value is “low polyreactivity”. As to “QVQLVESGGGLVQAGGSLRLSCAASGSIFLYYAMGWYRQAPGKERELVAAISQNGGSTYYADSVKGRFTISRDNAKNTVYLQMNSLKPEDTAVYYCNKYSFALRYDYWGQGTQVTVSS”, the “polyreactivity (PSR sort gate)” value is on record as “low polyreactivity”. Consider “QVQLVESGGGLVQAGGSLRLSCAASGSIFLYYAMGWYRQAPGKERELVAAISYSGASTYYADSVKGRFTISRDNAKNTVYLQMNSLKPEDTAVYYCARDYGQYVGEGCYWGQGTQVTVSS”, for which the “polyreactivity (PSR sort gate)” value is reported as “low polyreactivity”. Regarding “QVQLVESGGGLVQAGGSLRLSCAASGSIFLYYAMGWYRQAPGKERELVAVITSGGITNYADSVKGRFTISRDNAKNTFYLQMNSLKPEDTAVYYCNKEYYITYFDLVYSSLDYWGQGTQVTVSS”, the “polyreactivity (PSR sort gate)” value is reported as “low polyreactivity”. On to “QVQLVESGGGLVQAGGSLRLSCAASGSIFLYYAMGWYRQAPGNERELVAGINRVGSTNYADSVKGRFTISRDNAKNTVYLQMNSLKPEDTAVYYCNKRATRSRRRGYWGQGTQVTVSS”, for which the “polyreactivity (PSR sort gate)” value is recorded as “low polyreactivity”. For “QVQLVESGGGLVQAGGSLRLSCAASGSIFNANAMGLYIQAPGKERELVASISGGAGSTYYADSVKGRFTISRDNAKNTVYLQMNSLKPEDTAVYYCNARWQEPLKYDYWGQGTQVTVSS”, the “polyreactivity (PSR sort gate)” value is “low polyreactivity”.

In the case of “QVQLVESGGGLVQAGGSLRLSCAASGSIFNAYDMGWYRQAPGKERELVAGISSSDSTYYADSVKGRFTISRDNAKNTVYLQMNSLIPEDTAVYYCAADPVFAAAYIHLYGIYDSWGQGTQVTVSS”, the “polyreactivity (PSR sort gate)” value is given as “low polyreactivity”. The result for “QVQLVESGGGLVQAGGSLRLSCAASGSIFNGNDMGWYRQAPGKERELVASITSNGGRTYYADSVKGRVTISRDNAKNTVYLQMNSLKPEDTAVYYCAAGYYILYIWKFDYWGQGTQVTVSS” reads “high polyreactivity”; that for “QVQLVESGGGLVQAGGSLRLSCAASGSIFNGYAMGWYRQAPGKERELVAAISWSGVGTYYADSVKGRFTISRDNAKNTVYLQMNSLKPEDTAVYYCAAALPLVDFYDYWGQGTQVTVSS”, “low polyreactivity”. As for “QVQLVESGGGLVQAGGSLRLSCAASGSIFNGYVMGWYRQAPGKERELVAAISSGGRTYYADSVKGRFTISRDNAKNTVYLQMNSLKPEDTAVYYCNAYWLHYPSRVRKITAYDYWGQGTQVTVSS”, the “polyreactivity (PSR sort gate)” value is listed as “low polyreactivity”.

In the case of “QVQLVESGGGLVQAGGSLRLSCAASGSIFNINVMGWYRQAPGKEREMVAAINSGTSTYYADSVKGRFTISRDNAKNTVYLQMNSLKPEDTAVYYCAARNLFTGRRLFYYWGQGTQVTVSS”, the “polyreactivity (PSR sort gate)” value is given as “low polyreactivity”.
